T1: INTU, Q9ULD6
T1 sequence (Q9ULD6 180-273, limits assumed, looked up): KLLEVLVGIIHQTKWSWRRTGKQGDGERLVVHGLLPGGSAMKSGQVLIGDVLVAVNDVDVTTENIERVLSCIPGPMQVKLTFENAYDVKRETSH

T2: MPDZ_6, O75970
T2 sequence (O75970 1003-1099, limits assumed, looked up): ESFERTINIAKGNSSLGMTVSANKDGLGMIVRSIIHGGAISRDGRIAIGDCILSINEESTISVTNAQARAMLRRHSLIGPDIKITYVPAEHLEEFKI

T3: MPDZ_7, O75970
T3 sequence (O75970 1146-1253, limits assumed, looked up): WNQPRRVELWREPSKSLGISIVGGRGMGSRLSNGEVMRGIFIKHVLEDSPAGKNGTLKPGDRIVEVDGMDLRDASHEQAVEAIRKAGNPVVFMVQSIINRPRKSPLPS

T4: NHERF1_2, O14745
T4 sequence (O14745 149-244, limits assumed, looked up): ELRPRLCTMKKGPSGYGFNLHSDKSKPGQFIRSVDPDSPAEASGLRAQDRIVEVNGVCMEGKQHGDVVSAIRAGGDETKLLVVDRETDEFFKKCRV

T5: PARD6B, Q9BYG5
T5 sequence (Q9BYG5 152-260, limits assumed, looked up): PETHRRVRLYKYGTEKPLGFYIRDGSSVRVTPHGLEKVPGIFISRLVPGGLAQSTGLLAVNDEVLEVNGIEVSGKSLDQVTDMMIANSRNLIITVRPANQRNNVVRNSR

T6: PDZD2_5, O15018
T6 sequence (O15018 2617-2716, limits assumed, looked up): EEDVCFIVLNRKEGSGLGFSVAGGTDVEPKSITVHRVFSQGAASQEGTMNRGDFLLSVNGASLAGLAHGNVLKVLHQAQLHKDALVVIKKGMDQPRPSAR

T7: PTPN13_4, Q12923
T7 sequence (Q12923 1783-1878, limits assumed, looked up): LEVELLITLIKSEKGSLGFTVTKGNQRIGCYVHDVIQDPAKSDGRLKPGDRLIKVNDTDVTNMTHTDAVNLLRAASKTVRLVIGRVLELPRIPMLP

T8: PTPN4, P29074
T8 sequence (P29074 512-599, limits assumed, looked up): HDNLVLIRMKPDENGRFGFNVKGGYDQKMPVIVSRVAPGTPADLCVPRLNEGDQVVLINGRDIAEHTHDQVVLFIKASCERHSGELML

T9: SHANK2, Q9UPX8
T9 sequence (Q9UPX8 621-730, limits assumed, looked up): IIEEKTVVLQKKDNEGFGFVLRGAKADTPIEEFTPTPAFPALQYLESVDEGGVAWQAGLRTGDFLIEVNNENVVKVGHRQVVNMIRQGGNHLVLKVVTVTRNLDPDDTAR

T10: SHROOM3, Q8TF72
T10 sequence (Q8TF72 20-120, limits assumed, looked up): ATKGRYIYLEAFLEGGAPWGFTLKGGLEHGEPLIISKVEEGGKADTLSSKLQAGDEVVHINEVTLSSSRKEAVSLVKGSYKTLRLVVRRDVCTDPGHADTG

T11: USH1C_2, Q9Y6N9
T11 sequence (Q9Y6N9 206-303, limits assumed, looked up): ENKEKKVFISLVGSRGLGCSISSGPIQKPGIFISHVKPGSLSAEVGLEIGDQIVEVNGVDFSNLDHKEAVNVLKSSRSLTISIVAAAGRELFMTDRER

T12: USH1C_3, Q9Y6N9
T12 sequence (Q9Y6N9 447-547, limits assumed, looked up): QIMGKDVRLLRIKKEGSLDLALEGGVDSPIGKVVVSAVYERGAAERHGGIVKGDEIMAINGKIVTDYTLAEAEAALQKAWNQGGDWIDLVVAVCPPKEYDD

B1: HPV73-E6, Q82005 (peptide)
chain: SGSRPSATVV

These binders were tested against CNKSR3, Q6P9H4 (assay: holdup assay). Conditions: plain residues with an end cap or a label only (N-terminal biotin on a linker: ttds).
Design: key: below the threshold = too weak to quantify, mostly under pKd 3.1 to 4

Sequence of CNKSR3, Q6P9H4 (Q6P9H4 203-303): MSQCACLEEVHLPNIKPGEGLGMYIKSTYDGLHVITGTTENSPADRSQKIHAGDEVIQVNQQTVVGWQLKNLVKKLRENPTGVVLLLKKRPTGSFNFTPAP

| Binder | pKd |
| --- | --- |
| B1 | below the threshold |

Each binder was assayed against DLG2_1, Q15700 (assay: holdup assay). Conditions: plain residues with an end cap or a label only (N-terminal biotin on a linker: ttds).
Design: key: below the threshold = too weak to quantify, mostly under pKd 3.1 to 4

| Binder | pKd |
| --- | --- |
| B1 | below the threshold |

These binders were tested against IL16_2, Q14005 (assay: holdup assay). Conditions: plain residues with an end cap or a label only (N-terminal biotin on a linker: ttds).
Design: key: below the threshold = too weak to quantify, mostly under pKd 3.1 to 4

Sequence of IL16_2, Q14005 (Q14005 350-450): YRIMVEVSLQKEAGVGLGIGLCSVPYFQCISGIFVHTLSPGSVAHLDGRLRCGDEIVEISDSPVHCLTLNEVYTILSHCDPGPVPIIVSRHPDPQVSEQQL

| Binder | pKd |
| --- | --- |
| B1 | below the threshold |

What follows are binders tested against T1, INTU, Q9ULD6 (assay: holdup assay). Conditions: plain residues with an end cap or a label only (N-terminal biotin on a linker: ttds).
Design: key: below the threshold = too weak to quantify, mostly under pKd 3.1 to 4

| Binder | pKd |
| --- | --- |
| B1 | 4.58 |

These binders were tested against MAGI1_3, Q96QZ7 (assay: holdup assay). Conditions: plain residues with an end cap or a label only (N-terminal biotin on a linker: ttds).
Design: key: below the threshold = too weak to quantify, mostly under pKd 3.1 to 4

Sequence of MAGI1_3, Q96QZ7 (Q96QZ7 638-725): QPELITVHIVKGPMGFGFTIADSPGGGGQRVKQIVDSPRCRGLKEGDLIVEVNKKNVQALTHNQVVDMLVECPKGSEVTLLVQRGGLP

| Binder | pKd |
| --- | --- |
| B1 | below the threshold |

The binders below were run against MAGI1_4, Q96QZ7 (assay: holdup assay). Conditions: plain residues with an end cap or a label only (N-terminal biotin on a linker: ttds).
Design: key: below the threshold = too weak to quantify, mostly under pKd 3.1 to 4

Sequence of MAGI1_4, Q96QZ7 (Q96QZ7 other isoform, or with tags, fused parts or gaps): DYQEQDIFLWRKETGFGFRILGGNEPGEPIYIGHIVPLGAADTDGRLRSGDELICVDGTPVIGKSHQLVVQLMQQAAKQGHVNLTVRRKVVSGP

| Binder | pKd |
| --- | --- |
| B1 | below the threshold |

The binders below were run against MAGI1_6, Q96QZ7 (assay: holdup assay). Conditions: plain residues with an end cap or a label only (N-terminal biotin on a linker: ttds).
Design: key: below the threshold = too weak to quantify, mostly under pKd 3.1 to 4

Sequence of MAGI1_6, Q96QZ7 (Q96QZ7 1146-1238): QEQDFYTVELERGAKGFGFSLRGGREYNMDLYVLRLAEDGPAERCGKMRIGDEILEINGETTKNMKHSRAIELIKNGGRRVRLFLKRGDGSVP

| Binder | pKd |
| --- | --- |
| B1 | below the threshold |

What follows are binders tested against MAGI3_3, Q5TCQ9 (assay: holdup assay). Conditions: plain residues with an end cap or a label only (N-terminal biotin on a linker: ttds).
Design: key: below the threshold = too weak to quantify, mostly under pKd 3.1 to 4

Sequence of MAGI3_3, Q5TCQ9 (Q5TCQ9 572-655): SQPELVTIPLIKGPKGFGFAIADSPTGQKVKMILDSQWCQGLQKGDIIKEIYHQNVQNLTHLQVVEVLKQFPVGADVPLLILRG

| Binder | pKd |
| --- | --- |
| B1 | below the threshold |

What follows are binders tested against T2, MPDZ_6, O75970 (assay: holdup assay). Conditions: plain residues with an end cap or a label only (N-terminal biotin on a linker: ttds).
Design: key: below the threshold = too weak to quantify, mostly under pKd 3.1 to 4

| Binder | pKd |
| --- | --- |
| B1 | below the threshold |

Each binder was assayed against T3, MPDZ_7, O75970 (assay: holdup assay). Conditions: plain residues with an end cap or a label only (N-terminal biotin on a linker: ttds).
Design: key: below the threshold = too weak to quantify, mostly under pKd 3.1 to 4

| Binder | pKd |
| --- | --- |
| B1 | below the threshold |

These binders were tested against T4, NHERF1_2, O14745 (assay: holdup assay). Conditions: plain residues with an end cap or a label only (N-terminal biotin on a linker: ttds).
Design: key: below the threshold = too weak to quantify, mostly under pKd 3.1 to 4

| Binder | pKd |
| --- | --- |
| B1 | below the threshold |

The binders below were run against NHERF2_1, Q15599 (assay: holdup assay). Conditions: plain residues with an end cap or a label only (N-terminal biotin on a linker: ttds).
Design: key: below the threshold = too weak to quantify, mostly under pKd 3.1 to 4

Sequence of NHERF2_1, Q15599 (Q15599 9-91): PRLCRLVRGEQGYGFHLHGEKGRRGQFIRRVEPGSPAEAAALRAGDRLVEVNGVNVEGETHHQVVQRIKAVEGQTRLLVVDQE

| Binder | pKd |
| --- | --- |
| B1 | below the threshold |

These binders were tested against PARD3B_2, Q8TEW8 (assay: holdup assay). Conditions: plain residues with an end cap or a label only (N-terminal biotin on a linker: ttds).
Design: key: below the threshold = too weak to quantify, mostly under pKd 3.1 to 4

Sequence of PARD3B_2, Q8TEW8 (Q8TEW8 376-471): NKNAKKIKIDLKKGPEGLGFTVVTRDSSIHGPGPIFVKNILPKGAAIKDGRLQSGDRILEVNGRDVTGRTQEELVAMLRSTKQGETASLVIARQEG

| Binder | pKd |
| --- | --- |
| B1 | 4.24 |

The binders below were run against T5, PARD6B, Q9BYG5 (assay: holdup assay). Conditions: plain residues with an end cap or a label only (N-terminal biotin on a linker: ttds).
Design: key: below the threshold = too weak to quantify, mostly under pKd 3.1 to 4

| Binder | pKd |
| --- | --- |
| B1 | below the threshold |

The binders below were run against PDLIM4, P50479 (assay: holdup assay). Conditions: plain residues with an end cap or a label only (N-terminal biotin on a linker: ttds).
Design: key: below the threshold = too weak to quantify, mostly under pKd 3.1 to 4

Sequence of PDLIM4, P50479 (P50479 1-83): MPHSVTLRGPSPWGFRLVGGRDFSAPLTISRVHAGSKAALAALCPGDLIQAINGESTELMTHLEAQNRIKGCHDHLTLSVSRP

| Binder | pKd |
| --- | --- |
| B1 | below the threshold |

What follows are binders tested against T6, PDZD2_5, O15018 (assay: holdup assay). Conditions: plain residues with an end cap or a label only (N-terminal biotin on a linker: ttds).
Design: key: below the threshold = too weak to quantify, mostly under pKd 3.1 to 4

| Binder | pKd |
| --- | --- |
| B1 | below the threshold |

What follows are binders tested against T7, PTPN13_4, Q12923 (assay: holdup assay). Conditions: plain residues with an end cap or a label only (N-terminal biotin on a linker: ttds).
Design: key: below the threshold = too weak to quantify, mostly under pKd 3.1 to 4

| Binder | pKd |
| --- | --- |
| B1 | below the threshold |

Each binder was assayed against T8, PTPN4, P29074 (assay: holdup assay). Conditions: plain residues with an end cap or a label only (N-terminal biotin on a linker: ttds).
Design: key: below the threshold = too weak to quantify, mostly under pKd 3.1 to 4

| Binder | pKd |
| --- | --- |
| B1 | 4.65 |

These binders were tested against RIMS1, Q86UR5 (assay: holdup assay). Conditions: plain residues with an end cap or a label only (N-terminal biotin on a linker: ttds).
Design: key: below the threshold = too weak to quantify, mostly under pKd 3.1 to 4

Sequence of RIMS1, Q86UR5 (Q86UR5 584-692): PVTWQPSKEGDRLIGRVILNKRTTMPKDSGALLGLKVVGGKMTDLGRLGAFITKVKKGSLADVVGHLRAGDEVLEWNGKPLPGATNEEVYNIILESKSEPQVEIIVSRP

| Binder | pKd |
| --- | --- |
| B1 | below the threshold |

Each binder was assayed against RIMS2, Q9UQ26 (assay: holdup assay). Conditions: plain residues with an end cap or a label only (N-terminal biotin on a linker: ttds).
Design: key: below the threshold = too weak to quantify, mostly under pKd 3.1 to 4

Sequence of RIMS2, Q9UQ26 (Q9UQ26 637-758): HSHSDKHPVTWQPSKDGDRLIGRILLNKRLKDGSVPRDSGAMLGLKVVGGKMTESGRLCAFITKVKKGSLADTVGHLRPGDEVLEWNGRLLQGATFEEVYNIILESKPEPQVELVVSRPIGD

| Binder | pKd |
| --- | --- |
| B1 | below the threshold |

These binders were tested against SCRIB_4, Q14160 (assay: holdup assay). Conditions: plain residues with an end cap or a label only (N-terminal biotin on a linker: ttds).
Design: key: below the threshold = too weak to quantify, mostly under pKd 3.1 to 4

Sequence of SCRIB_4, Q14160 (Q14160 1095-1204): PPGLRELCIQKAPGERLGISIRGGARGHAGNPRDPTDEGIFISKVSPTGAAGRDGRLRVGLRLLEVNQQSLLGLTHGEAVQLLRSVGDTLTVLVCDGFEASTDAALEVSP

| Binder | pKd |
| --- | --- |
| B1 | below the threshold |

What follows are binders tested against T9, SHANK2, Q9UPX8 (assay: holdup assay). Conditions: plain residues with an end cap or a label only (N-terminal biotin on a linker: ttds).
Design: key: below the threshold = too weak to quantify, mostly under pKd 3.1 to 4

| Binder | pKd |
| --- | --- |
| B1 | below the threshold |

What follows are binders tested against T10, SHROOM3, Q8TF72 (assay: holdup assay). Conditions: plain residues with an end cap or a label only (N-terminal biotin on a linker: ttds).
Design: key: below the threshold = too weak to quantify, mostly under pKd 3.1 to 4

| Binder | pKd |
| --- | --- |
| B1 | below the threshold |

These binders were tested against TJP1_1, Q07157 (assay: holdup assay). Conditions: plain residues with an end cap or a label only (N-terminal biotin on a linker: ttds).
Design: key: below the threshold = too weak to quantify, mostly under pKd 3.1 to 4

Sequence of TJP1_1, Q07157 (Q07157 18-120): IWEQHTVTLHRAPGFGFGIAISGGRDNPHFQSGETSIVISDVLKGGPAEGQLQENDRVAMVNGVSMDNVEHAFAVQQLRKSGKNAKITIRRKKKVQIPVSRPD

| Binder | pKd |
| --- | --- |
| B1 | below the threshold |

The binders below were run against T11, USH1C_2, Q9Y6N9 (assay: holdup assay). Conditions: plain residues with an end cap or a label only (N-terminal biotin on a linker: ttds).
Design: key: below the threshold = too weak to quantify, mostly under pKd 3.1 to 4

| Binder | pKd |
| --- | --- |
| B1 | below the threshold |

These binders were tested against T12, USH1C_3, Q9Y6N9 (assay: holdup assay). Conditions: plain residues with an end cap or a label only (N-terminal biotin on a linker: ttds).
Design: key: below the threshold = too weak to quantify, mostly under pKd 3.1 to 4

| Binder | pKd |
| --- | --- |
| B1 | below the threshold |

Source: article PMC9482650, “Quantitative fragmentomics allow affinity mapping of interactomes” (Nature Communications, 2022)
